This note sets out measurements from patent publication US20180185504A1 (Regeneron, published 2018).

The target of one test is T1, IL-6R (human, UniProt P08887 20-468).
T1 construct: whole, on cells
T1 sequence (looked up): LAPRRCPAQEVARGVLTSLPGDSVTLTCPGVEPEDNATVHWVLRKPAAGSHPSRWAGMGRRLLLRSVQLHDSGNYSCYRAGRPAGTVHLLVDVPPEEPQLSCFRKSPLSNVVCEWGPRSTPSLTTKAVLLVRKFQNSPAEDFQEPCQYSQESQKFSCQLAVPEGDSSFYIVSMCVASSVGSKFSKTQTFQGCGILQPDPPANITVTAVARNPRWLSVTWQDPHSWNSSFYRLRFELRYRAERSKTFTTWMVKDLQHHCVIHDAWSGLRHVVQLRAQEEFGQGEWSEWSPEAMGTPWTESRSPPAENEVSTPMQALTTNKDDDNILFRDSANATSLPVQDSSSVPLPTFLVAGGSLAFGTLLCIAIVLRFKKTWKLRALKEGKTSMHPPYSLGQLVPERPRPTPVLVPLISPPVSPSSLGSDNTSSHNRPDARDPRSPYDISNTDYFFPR
The test can be described thus: flow cytometry, anti-IL-6R antibody on KG-1 cells (endogenous IL-6R), PE anti-human secondary. A general note: A flow cytometer gives signals particle by particle.

The target of test [1] is T2, mouse PRLR with an HA tag on HEK293 cells (mouse, UniProt Q08501 20-608).
T2 construct: whole, on cells; also called HEK293/mPRLR; rodent PRLR; not shown: HA tag
T2 sequence (looked up): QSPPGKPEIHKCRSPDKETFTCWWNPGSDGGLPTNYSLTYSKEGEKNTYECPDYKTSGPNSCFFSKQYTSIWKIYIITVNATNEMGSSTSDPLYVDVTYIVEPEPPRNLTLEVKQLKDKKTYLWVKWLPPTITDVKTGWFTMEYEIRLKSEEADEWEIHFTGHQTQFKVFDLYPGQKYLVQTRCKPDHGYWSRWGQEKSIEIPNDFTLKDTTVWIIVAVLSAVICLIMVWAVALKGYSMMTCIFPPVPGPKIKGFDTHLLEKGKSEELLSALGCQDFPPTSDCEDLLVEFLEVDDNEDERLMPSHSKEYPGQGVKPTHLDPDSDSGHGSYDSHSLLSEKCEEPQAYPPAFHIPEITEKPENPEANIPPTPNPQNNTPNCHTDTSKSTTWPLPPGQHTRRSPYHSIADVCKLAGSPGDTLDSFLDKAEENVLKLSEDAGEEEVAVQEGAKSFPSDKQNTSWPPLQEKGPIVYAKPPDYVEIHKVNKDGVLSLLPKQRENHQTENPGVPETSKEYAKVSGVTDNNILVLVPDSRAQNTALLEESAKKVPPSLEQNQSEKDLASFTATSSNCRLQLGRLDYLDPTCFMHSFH
The test can be described thus: FACS on HEK293/mPRLR cells.

Test [2] has as its target T3, human prolactin receptor (PRLR) on cells (human, UniProt P16471 25-622).
T3 sequence: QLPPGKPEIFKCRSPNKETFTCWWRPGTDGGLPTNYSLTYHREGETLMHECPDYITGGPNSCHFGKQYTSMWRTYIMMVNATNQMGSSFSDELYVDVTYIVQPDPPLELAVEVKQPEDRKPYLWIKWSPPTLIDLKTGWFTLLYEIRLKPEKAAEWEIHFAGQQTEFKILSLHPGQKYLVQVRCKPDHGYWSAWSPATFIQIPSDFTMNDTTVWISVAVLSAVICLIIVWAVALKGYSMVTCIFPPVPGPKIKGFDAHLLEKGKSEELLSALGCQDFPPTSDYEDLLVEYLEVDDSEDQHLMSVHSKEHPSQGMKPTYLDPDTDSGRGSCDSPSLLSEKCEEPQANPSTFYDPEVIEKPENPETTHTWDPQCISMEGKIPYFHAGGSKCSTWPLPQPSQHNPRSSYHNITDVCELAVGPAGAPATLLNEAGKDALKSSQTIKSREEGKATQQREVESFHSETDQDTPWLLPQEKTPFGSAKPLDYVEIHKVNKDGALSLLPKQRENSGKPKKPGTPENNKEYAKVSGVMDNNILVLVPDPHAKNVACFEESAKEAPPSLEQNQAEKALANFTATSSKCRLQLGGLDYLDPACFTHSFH
The experiment in a line: cell-based or functional assay.

Test [3] deals with T4, dimeric form of cynomolgus monkey (Macaca fascicularis) PRLR (Example 12 ELISA) (cynomolgus monkey (Macaca fascicularis)).
T4 construct: also called monkey PRLR
The test can be described thus: blocking ELISA: 10 nM dimeric monkey PRLR premixed with mAb (520 pM to 30 nM), plate-coated human PRL. As to the method:
(§1) Dimeric forms of human or cynomolgus monkey (Macaca fascicularis) PRLR and monomeric human PRL were used in this assay. […] After 1-hour incubation, captured PRLR was detected with HRP-conjugated goat anti-Fcγ antibody and visualized with TMB colorimetric substrate by measuring absorbance at 450 nm. […] Mixtures were then added to plates coated with in 1 μg/mL PRL and captured PRLR was detected as described above. Data were analyzed using a four-parameter logistic equation over an 11-point response curve in GraphPad Prism software and IC₅₀ values were calculated.
In general terms: ELISA stands for enzyme-linked immunosorbent assay.

The target in test [4] is T5, hPRLR-mmH (recombinant extracellular domain of hPRLR with a C-terminal myc-myc-hexahistidine tag) (human).
T5 construct: the entry includes the myc-myc-His6 tag; also called truncated form of PRLR
T5 chain: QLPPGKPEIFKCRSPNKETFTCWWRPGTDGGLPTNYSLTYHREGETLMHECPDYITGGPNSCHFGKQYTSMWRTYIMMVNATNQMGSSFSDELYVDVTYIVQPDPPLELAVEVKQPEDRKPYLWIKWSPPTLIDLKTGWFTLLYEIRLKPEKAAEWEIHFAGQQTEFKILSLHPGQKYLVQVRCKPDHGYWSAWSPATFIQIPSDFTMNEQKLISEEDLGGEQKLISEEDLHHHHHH
The experiment in a line: H/D exchange MS; hPRLR-mmH bound to H1H6958N2 on NHS agarose beads.

The target in test [5] is T6, dimeric form of human PRLR (Example 12 ELISA) (human).
T6 construct: PRLR'
T6 sequence (P16471 whole entry, looked up): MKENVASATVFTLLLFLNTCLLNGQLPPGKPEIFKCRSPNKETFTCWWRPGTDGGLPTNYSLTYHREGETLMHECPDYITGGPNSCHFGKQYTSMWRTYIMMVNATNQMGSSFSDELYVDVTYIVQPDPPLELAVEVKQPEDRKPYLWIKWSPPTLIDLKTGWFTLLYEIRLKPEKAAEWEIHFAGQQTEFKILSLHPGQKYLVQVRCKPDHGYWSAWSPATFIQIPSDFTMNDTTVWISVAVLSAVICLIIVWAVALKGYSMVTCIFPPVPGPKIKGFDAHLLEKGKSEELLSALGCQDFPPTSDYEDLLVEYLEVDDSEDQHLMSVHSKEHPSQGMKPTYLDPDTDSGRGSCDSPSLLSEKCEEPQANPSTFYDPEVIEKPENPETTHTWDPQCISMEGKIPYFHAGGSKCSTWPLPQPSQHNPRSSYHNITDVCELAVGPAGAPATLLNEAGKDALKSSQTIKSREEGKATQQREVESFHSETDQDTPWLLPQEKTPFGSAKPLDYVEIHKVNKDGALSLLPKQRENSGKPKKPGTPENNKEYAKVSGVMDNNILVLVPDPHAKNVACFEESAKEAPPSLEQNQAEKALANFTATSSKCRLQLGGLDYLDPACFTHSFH
The experiment in a line: blocking ELISA: 10 nM dimeric human PRLR premixed with mAb (520 pM to 30 nM), plate-coated human PRL. On the procedure: as §1

In test [6] the target is T4, dimeric form of cynomolgus monkey …. The test can be described thus: blocking ELISA: 10 nM dimeric monkey PRLR premixed with ADC (520 pM to 30 nM), plate-coated human PRL. As to the method:
as §1

Test [7] concerns the target T6, dimeric form of human PRLR (Example 12 …). The test can be described thus: blocking ELISA: 10 nM dimeric human PRLR premixed with ADC (520 pM to 30 nM), plate-coated human PRL. As to the method: as §1
The target of test [8] is T7, hPRLR-mmH (recombinant extracellular domain of hPRLR with a C-terminal myc-myc-hexahistidine tag) (human).
T7 construct: also called truncated form of PRLR
T7 chain: T5 chain
The experiment in a line: H/D exchange; hPRLR-mmH captured on H1H6958N2 agarose beads.

B1: VV6A9-5 (antibody, V domains shown)
VH: EVQLVESGGGLVQPGRSLRLSCAASGFTFDDYALHWVRQAPGKGLEWVSGVSWNGGRIGYADSVKGRFTISRDNAKNSLFLQMNSLRVEDTALYYCAKGRDAFDIWGQGTLVTVSS
VL: DIQMTQSPSSVSASVGDRVTITCRASQGISSWLAWYQQKPGKAPKLLIYAASSLQSGVPSRFSGSGSGTDFTLTISSLQPEDFATYYCQHAYSFPYTFGQGTKLEIK
In the case of B1, in the test with IL-6R, the “Fold Over Background (FACS MFI above isotype control)” value came out at 7 fold over background.

B2: H1H6958N2 (antibody, human IgG1, V domains shown)
VH: QVQLVESGGGVVQPGRSLRLSCGASGFTFRNYGMQWVRQGPGKGLEWVTLISFDGNDKYYADSVKGRFTISRDNSKNTLFLQMNSLRTEDTAVYYCARGGDFDYWGQGTLVTVSS
VL: DIQMTQSPSSLSASVGDRVTITCRASQDIRKDLGWYQQKPGKAPKRLIYAASSLHSGVPSRFSGSGSGTEFTLTISSLQPEDFATYYCLQHNSYPMYTFGQGTKLEIK
notes: Tested with human IgG1 Fc (H1H); also called HIH6958N2
On to B2, for which the values for the binding result in test [1] and in test [4] were “no binding” and “binds”, respectively. For the same molecule, the “IC50, block of PRL-induced STAT5-luciferase activity (2 nM PRL)” value in test [2] was 0.4 nM. Moreover, the results for the IC50 in test [3] and in [5] were 5.8 nM and 5 nM, respectively.

B3: H1H6958N2-DM1 (antibody, human IgG1, V domains shown)
VH: B2 VH
VL: B2 VL
modifications: maytansinoid DM1 conjugated to the antibody through an SMCC linker; conjugation sites not stated
notes: also called H1H6958N2-SMCC-DM1; PRLR ADC
B3: the IC50 was 4.2 nM in [6] and 4.4 nM in test [7]. Besides, the “IC50, block of PRL-induced STAT5-luciferase activity (2 nM PRL)” value in test [2] came to 0.4 nM.

B4: H1H6958N2 (antibody, V domains shown)
VH: B2 VH
VL: B2 VL
notes: In the H/D exchange experiment the antibody was covalently attached to NHS agarose beads; also called H2M6958N2 (same variable domains, mouse IgG2 Fc); anti-PRLR antibody H1H6958N2
With B4, in test [8], the binding result is on record as “binds”.

As usually defined, the IC50 is the concentration at which inhibition is half-maximal.
